According to the supplement of paper PMC7877785:
± gives the uncertainty stated by the source.

Assay: self-splicing fitness, log relative to wild type (ln ratio); higher = more splicing; Tetrahymena group I intron in knt gene, E. coli kanamycin selection, DiMSum; sequences stand for … in CUCUCU…GGAGGGAAAAGUUAUCAGGCAUGCACCUGGUAGCUAGUCUUUAAACCAAUAGAUUGCAUCGGUUUAAAAGGCAAGACCGUCAAAUUGCGGGAAAGGGGUCAACAGCCGUUCAGUACCAAGUCUCAGGGGAAACUUUGAGAUGGCCUUGCAAAGGGUAUGGUAAUAAGCUGACGGACAUGGUCCUAACCACGCAGCCAAGUCCUAAGUCAACAGAUCUUCUGUUGAUAUGGAUGCAGUUCACAGACUAAAUGUCGGUCGGGGAAGAUGUAUUCUUCUCAUAAGAUAUAGUCGGACCUCUCCUUAAUGGGAGCUAGCGGAUGAAGUGAUGCAACACUGGAGCCGCUGGGAACUAAUUUGUAUGCGAAAGUAUAUUGAUUAGUUUUGGAGUACUCGUGGUCG
How it was run: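 Six replicate transformations of E. coli BL21(DE3) with a pET-22b(+) library were grown overnight at 37°C or 30°C. The library randomised all eight P1ex-region intron nucleotides, the intron lying in the knt kanamycin-resistance gene, and plates were LB agar with or without 25 μg/mL kanamycin plus 100 μg/mL carbenicillin, 50 μM IPTG and 0.2% rhamnose. Pooled colonies were amplicon-sequenced on an Illumina HiSeq 2500, and fitness is the DiMSum error-weighted combination of wild-type-normalised replicate fold changes, kanamycin versus none.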

Sequence	self-splicing fitness (ln) (30 °C)	self-splicing fitness (ln) (37 °C)
AGGAAGCAAUAUUACGCGCG	-0.598 ± 0.21	-0.0648 ± 0.26
AGGAAGCAAUAUUACGCGGA	-2.32 ± 0.22	-1.29 ± 0.17
AGGAAGCAAUAUUACGCGUC	-3.99 ± 0.33	-2.24 ± 0.24
AGGAAGCAAUAUUACGCUGC	-3.38 ± 0.43	–
AGGAAGCAAUAUUACGGCGA	-0.209 ± 0.097	-0.301 ± 0.13
AGGAAGCAAUAUUACGGCUG	-0.459 ± 0.13	-0.0568 ± 0.15
AGGAAGCAAUAUUACGGGUC	-3 ± 0.32	-2.31 ± 0.29
AGGAAGCAAUAUUACGGUCA	-0.983 ± 0.086	0.202 ± 0.091
AGGAAGCAAUAUUACGGUCG	-0.601 ± 0.1	0.213 ± 0.14
AGGAAGCAAUAUUACGGUGA	-2.15 ± 0.09	-1.23 ± 0.088
AGGAAGCAAUAUUACGGUUU	-2.13 ± 0.085	-0.557 ± 0.1
AGGAAGCAAUAUUACGUACA	-1.08 ± 0.065	-0.404 ± 0.088
AGGAAGCAAUAUUACGUACU	-1.76 ± 0.12	-0.989 ± 0.19
AGGAAGCAAUAUUACGUAGC	–	-1.62 ± 0.28
AGGAAGCAAUAUUACGUGAA	-2.53 ± 0.35	-1.97 ± 0.24
AGGAAGCAAUAUUACGUUAA	-3.22 ± 0.18	-1.72 ± 0.12
AGGAAGCAAUAUUACGUUUC	-3.65 ± 0.33	-1.86 ± 0.36
AGGCAGCAAUAUUACGAAGA	-1.96 ± 0.29	-1.12 ± 0.18
AGGCAGCAAUAUUACGAAUG	-1.83 ± 0.17	-1.73 ± 0.2
AGGCAGCAAUAUUACGACCC	-0.357 ± 0.31	-0.702 ± 0.5
AGGCAGCAAUAUUACGACCG	0.153 ± 0.071	0.0303 ± 0.085
AGGCAGCAAUAUUACGACGU	-0.0258 ± 0.11	0.539 ± 0.087
AGGCAGCAAUAUUACGAGGC	-3.43 ± 0.29	-1.67 ± 0.22
AGGCAGCAAUAUUACGAGUG	-3.63 ± 0.28	-1.96 ± 0.18
AGGCAGCAAUAUUACGAUAA	-1.82 ± 0.11	-2.3 ± 0.16

Sequence	self-splicing fitness (ln) (30 °C)	self-splicing fitness (ln) (37 °C)
AGGCAGCAAUAUUACGAUUG	-3.13 ± 0.17	-2.4 ± 0.22
AGGCAGCAAUAUUACGCUUG	-2.81 ± 0.17	-2.12 ± 0.23
AGGCAGCAAUAUUACGGCAG	-1.29 ± 0.1	-0.578 ± 0.12
AGGCAGCAAUAUUACGGGCC	-2.17 ± 0.29	-1.52 ± 0.26
AGGCAGCAAUAUUACGGGGA	–	-3.03 ± 0.23
AGGCAGCAAUAUUACGGUAC	-3.68 ± 0.21	-2.65 ± 0.2
AGGCAGCAAUAUUACGGUGU	-2.38 ± 0.13	-1.73 ± 0.15
AGGCAGCAAUAUUACGUAAA	-2 ± 0.085	-0.673 ± 0.099
AGGCAGCAAUAUUACGUAUC	-2.26 ± 0.16	-0.296 ± 0.12
AGGCAGCAAUAUUACGUCUU	-4.07 ± 0.25	-2.58 ± 0.19
AGGCAGCAAUAUUACGUGUG	-2.98 ± 0.11	-1.44 ± 0.096
AGGCAGCAAUAUUACGUUAU	-1.78 ± 0.08	-1.78 ± 0.11
AGGCAGCAAUAUUACGUUCA	-0.538 ± 0.08	-0.117 ± 0.13
AGGGAGCAAUAUUACGAAAU	-3.18 ± 0.35	-1.22 ± 0.24
AGGGAGCAAUAUUACGACCA	-1.14 ± 0.18	-0.171 ± 0.19
AGGGAGCAAUAUUACGACUU	-1.41 ± 0.18	0.0129 ± 0.18
AGGGAGCAAUAUUACGAGUA	-2.7 ± 0.31	-1.76 ± 0.2
AGGGAGCAAUAUUACGCAUA	-2.22 ± 0.2	-2.63 ± 0.33
AGGGAGCAAUAUUACGCUAA	–	-2.1 ± 0.49
AGGGAGCAAUAUUACGCUCA	-1.16 ± 0.11	-1.14 ± 0.13
AGGGAGCAAUAUUACGCUGC	-3.96 ± 0.29	-2.35 ± 0.23
AGGGAGCAAUAUUACGGACA	-2.85 ± 0.35	-2.56 ± 0.29
AGGGAGCAAUAUUACGGAGG	–	-1.74 ± 0.43
AGGGAGCAAUAUUACGGGUA	-3.37 ± 0.21	-2.64 ± 0.17
AGGGAGCAAUAUUACGGUAC	-2.99 ± 0.31	-2.67 ± 0.3

Sequence	self-splicing fitness (ln) (30 °C)	self-splicing fitness (ln) (37 °C)
AGGGAGCAAUAUUACGGUCU	-1.67 ± 0.21	-0.696 ± 0.21
AGGGAGCAAUAUUACGUCAU	-3.06 ± 0.28	-2.74 ± 0.31
AGGGAGCAAUAUUACGUGAG	-3.15 ± 0.26	-2.56 ± 0.24
AGGGAGCAAUAUUACGUGCU	-3.8 ± 0.3	-1.92 ± 0.25
AGGGAGCAAUAUUACGUGGU	–	-3.13 ± 0.4
AGGGAGCAAUAUUACGUUGA	–	-2.8 ± 0.24
AGGGAGCAAUAUUACGUUGU	-3.01 ± 0.18	-2.9 ± 0.2
AGGUAGCAAUAUUACGAACC	-0.58 ± 0.025	-0.294 ± 0.041
AGGUAGCAAUAUUACGAGAG	-3.887 ± 0.03	-2.71 ± 0.039
AGGUAGCAAUAUUACGAGGU	-3.749 ± 0.029	-2.49 ± 0.039
AGGUAGCAAUAUUACGAUCC	-0.0773 ± 0.022	0.212 ± 0.039
AGGUAGCAAUAUUACGAUCG	-0.106 ± 0.015	0.121 ± 0.035
AGGUAGCAAUAUUACGAUGG	-3.633 ± 0.029	-2.57 ± 0.042
AGGUAGCAAUAUUACGCAAA	-2.317 ± 0.023	-1.37 ± 0.035
AGGUAGCAAUAUUACGCCGA	-0.983 ± 0.019	-0.334 ± 0.034
AGGUAGCAAUAUUACGCCUU	-4.13 ± 0.038	-2.87 ± 0.048
AGGUAGCAAUAUUACGCUAC	-3.78 ± 0.047	-2.71 ± 0.059
AGGUAGCAAUAUUACGGCGG	-1.955 ± 0.016	-1.11 ± 0.034
AGGUAGCAAUAUUACGGCUG	-1.13 ± 0.016	-1 ± 0.037
AGGUAGCAAUAUUACGGGUC	-3.64 ± 0.03	-2.96 ± 0.046
AGGUAGCAAUAUUACGGUUA	-0.977 ± 0.016	-0.509 ± 0.033
AGGUAGCAAUAUUACGGUUU	-0.613 ± 0.012	-0.252 ± 0.033
AGGUAGCAAUAUUACGUAAU	-1.908 ± 0.015	-0.958 ± 0.034
AGGUAGCAAUAUUACGUAGU	-3.123 ± 0.017	-1.62 ± 0.033
AGGUAGCAAUAUUACGUCUG	-0.641 ± 0.013	-0.161 ± 0.033

Sequence	self-splicing fitness (ln) (30 °C)	self-splicing fitness (ln) (37 °C)
AGUAAGCAAUAUUACGAACG	-0.785 ± 0.14	-0.209 ± 0.18
AGUAAGCAAUAUUACGACAC	-1.58 ± 0.19	-0.792 ± 0.17
AGUAAGCAAUAUUACGACGU	-0.0587 ± 0.09	-0.132 ± 0.087
AGUAAGCAAUAUUACGAGUA	-2.91 ± 0.26	-0.922 ± 0.16
AGUAAGCAAUAUUACGCACC	-0.949 ± 0.24	-0.969 ± 0.25
AGUAAGCAAUAUUACGCGCA	-1.02 ± 0.16	0.0785 ± 0.16
AGUAAGCAAUAUUACGCUAG	-2.83 ± 0.24	-2.39 ± 0.23
AGUAAGCAAUAUUACGGCGA	-0.491 ± 0.12	0.468 ± 0.17
AGUAAGCAAUAUUACGUCAC	-3.26 ± 0.19	-2.11 ± 0.17
AGUAAGCAAUAUUACGUCCA	-0.878 ± 0.12	-0.0078 ± 0.13
AGUAAGCAAUAUUACGUGAU	-3.15 ± 0.2	-2.33 ± 0.2
AGUAAGCAAUAUUACGUGGG	-3.66 ± 0.26	-1.89 ± 0.17
AGUAAGCAAUAUUACGUUUU	-3.28 ± 0.14	-2.19 ± 0.16
AGUCAGCAAUAUUACGAAAG	-3.43 ± 0.23	-1.45 ± 0.2
AGUCAGCAAUAUUACGAAAU	-1.76 ± 0.078	-0.398 ± 0.094
AGUCAGCAAUAUUACGAACU	-0.853 ± 0.089	0.15 ± 0.11
AGUCAGCAAUAUUACGACCG	0.0414 ± 0.095	0.085 ± 0.13
AGUCAGCAAUAUUACGACGA	-0.25 ± 0.07	-0.283 ± 0.11
AGUCAGCAAUAUUACGACUA	-0.831 ± 0.16	0.0945 ± 0.14
AGUCAGCAAUAUUACGACUC	-3.14 ± 0.25	-2.21 ± 0.24
AGUCAGCAAUAUUACGACUG	-0.879 ± 0.055	-0.421 ± 0.069
AGUCAGCAAUAUUACGAGAA	–	-1.35 ± 0.36
